Numbering of substitutions follows the chain as printed. Values belong to the binder of their own block, whether it stands above or below them.
What was measured:
Experiment in all cases: SPR (ProteOn)
[1] = biological target: T1, human serum albumin (human, UniProt P02768 25-609)
T1 construct: For SEC-MALS purified from CSL Behring 20% solution; also called HSA; SA (human)
Description: (§1) SPR was measured using a ProteOn instrument (BioRad) and measurement was performed according standard procedures known to the person skilled in the art.

[2] = biological target: T2, human HGF (human, UniProt P14210 32-728)
T2 construct: also called hepatocyte growth factor
T2 sequence (P14210 32-728 limits assumed): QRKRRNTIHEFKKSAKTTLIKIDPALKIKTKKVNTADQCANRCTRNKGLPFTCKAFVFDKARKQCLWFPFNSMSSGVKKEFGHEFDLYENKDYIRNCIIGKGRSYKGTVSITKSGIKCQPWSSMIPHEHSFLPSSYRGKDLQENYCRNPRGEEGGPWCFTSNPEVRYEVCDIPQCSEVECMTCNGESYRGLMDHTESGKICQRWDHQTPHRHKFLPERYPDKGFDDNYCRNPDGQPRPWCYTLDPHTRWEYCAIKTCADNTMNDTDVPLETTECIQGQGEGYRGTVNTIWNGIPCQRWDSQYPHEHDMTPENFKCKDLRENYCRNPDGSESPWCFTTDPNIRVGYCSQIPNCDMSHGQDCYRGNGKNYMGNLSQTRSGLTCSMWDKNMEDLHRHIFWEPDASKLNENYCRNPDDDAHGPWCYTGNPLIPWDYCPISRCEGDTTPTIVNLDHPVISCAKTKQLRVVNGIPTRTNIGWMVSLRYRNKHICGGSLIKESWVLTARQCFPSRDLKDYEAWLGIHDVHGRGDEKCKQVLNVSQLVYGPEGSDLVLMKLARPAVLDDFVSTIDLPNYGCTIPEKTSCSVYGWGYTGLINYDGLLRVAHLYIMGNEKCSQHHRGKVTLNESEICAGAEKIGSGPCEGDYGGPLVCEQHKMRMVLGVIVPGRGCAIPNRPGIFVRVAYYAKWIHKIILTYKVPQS
Description: as §1

[3] = biological target: T3, human VEGF-A (human, UniProt P15692-4 27-191, limits assumed)
T3 construct: Recombinant, bought or produced in CHO or Pichia pastoris; also called hVEGF-A
T3 sequence (P15692 other isoform, or with tags, fused parts or gaps limits assumed): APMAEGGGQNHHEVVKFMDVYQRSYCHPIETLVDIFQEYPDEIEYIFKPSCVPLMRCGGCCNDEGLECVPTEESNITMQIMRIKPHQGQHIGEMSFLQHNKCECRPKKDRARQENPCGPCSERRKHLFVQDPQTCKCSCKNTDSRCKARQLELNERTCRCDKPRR
Description: as §1

T1 sequence (P02768 25-609 limits assumed): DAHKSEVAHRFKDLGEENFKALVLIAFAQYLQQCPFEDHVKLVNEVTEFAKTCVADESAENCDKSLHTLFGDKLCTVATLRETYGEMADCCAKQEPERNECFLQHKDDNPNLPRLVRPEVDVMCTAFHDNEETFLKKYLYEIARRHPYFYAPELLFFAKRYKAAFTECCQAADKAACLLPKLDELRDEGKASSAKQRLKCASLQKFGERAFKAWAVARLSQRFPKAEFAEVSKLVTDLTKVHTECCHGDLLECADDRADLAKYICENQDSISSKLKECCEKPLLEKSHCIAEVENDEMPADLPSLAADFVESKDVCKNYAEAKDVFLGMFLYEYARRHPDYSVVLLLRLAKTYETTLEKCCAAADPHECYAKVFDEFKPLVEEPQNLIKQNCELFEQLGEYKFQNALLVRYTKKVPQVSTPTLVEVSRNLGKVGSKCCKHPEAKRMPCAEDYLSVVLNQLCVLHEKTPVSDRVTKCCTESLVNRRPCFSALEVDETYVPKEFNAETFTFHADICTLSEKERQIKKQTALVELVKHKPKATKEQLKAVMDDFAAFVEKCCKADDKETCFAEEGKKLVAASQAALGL

B3: Protein #42 (designed binder)
chain: MRGSHHHHHHGSDLGKKLLEAARAGQDDEVRILMANGADVNAADYFGHTPLHLAARDGHLKIVEVLLKYGADVNASDFAGKTPLHLAANDGHLEIVEVLLKHGADVNAQDKFGKTAFDISIDNGNEDLAEILQKAA
binding result [1]: binds

B4: Protein #35 (designed binder)
chain: MRGSHHHHHHGSDLGKKLLEAARAGQDDEVRILMANGADVNANDFLGLTPLHLAASTGHLEIVEVLLKYGADVNAIDAYGHTPLHLAANNGHLEIVEVLLKYGADVNAIDHFGYTPLHLAAMFGHLEIVEVLLKNGADVNAQDKFGKTAFDISIDNGNEDLAEILQKAA
binding result [2]: binds

B7: Protein #33 (designed binder)
chain: MRGSHHHHHHGSDLGKKLLEAARAGQDDEVRILMANGADVNAQDRWGDTPLHLAASAGHLKIVEVLLKYGADVNADDVFGDTPLHLAASLGHLEIVEVLLKYGADVNADDYAGNTPLHLAANTGHLEIVEVLLKHGADVNAQDKFGKTAFDISIDNGNEDLAEILQKAA
binding result [2]: binds

B8: Protein #34 (designed binder)
chain: B7 chain with H135Y
binding result [2]: binds

B11: Protein #37 (designed binder)
chain: MRGSHHHHHHGSDLGKKLLEAARAGQDDEVRILMANGADVNASDDTGLTPLHLAANRGHLEIVEVLLKHGADVNANDFAGMTPLHLAANVGHLEIVEVLLKYGADVNAHDDYGLTPLHLAANWRHLEIVEVLLKNGADVNAQDKFGKTAFDISIDNGNEDLAEILQKAA
binding result [2]: binds

B12: Protein #14 (designed binder)
chain: MRGSHHHHHHGSDLGKKLLEAARAGQDDEVRILMANGADVNTADSTGWTPLHLAAPWGHPEIVEVLLKNGADVNAHDYQGWTPLHLAATLGHLEIVEVLLKHGADVNAQDKFGKTAFDISIDNGNEDLAEILQKAA
binding result [3]: binds

B14: Protein #22 (designed binder)
chain: B12 chain with G15D, T42A, A43K, P60L, N69A, H76K, Y78F, T89A, L90V, H102A
binding result [3]: binds

B15: Protein #17 (designed binder)
chain: B12 chain with T42A, A43R, H76A, Y78F, T89A, L90V
binding result [3]: binds

B16: Protein #52 (designed binder)
chain: MRGSHHHHHHGSDLDKKLLEAARAGQDDEVRILMANGADVNAKDERGTTPLHLAAVYGHLEIVEVLLKAGADVNAKNETGYTPLHLADSSGHLEIVEVLLKHSADVNAQDKSGKTPADLAADAGHEDIAEVLQKAA
Kd [1]: 6 nM

B20: Protein #30 (designed binder)
chain: MRGSHHHHHHGSDLGKKLLEAARAGQDDEVRILMANGADVNTHDNFGDTPLHLAASIGHLEIVEVLLKHGADVNAFDSYGDTPLHLAASSGHLEIVEVLLKYGADVNALDYNGNTPLHLAANSGRLEIVEVLLKHGADVNAQDKFGKTAFDISIDNGNEDLAEILQKAA
binding result [2]: binds

B21: Protein #31 (designed binder)
chain: MRGSHHHHHHGSDLGKKLLEAARAGQDDEVRILMANGADVNAVDAWGDTPLHLAASIGHLEIVEVLLKNGADVNAADYYGDTPLHLAASAGHLEIVEVLLKYGADVNAQDDNGNTPLHLAANTGRLEIVEVLLKHGADVNAQDKFGKTAFDISIDNGNEDLAEILQKAA
binding result [2]: binds

B23: Protein #57 (designed binder)
chain: MRGSHHHHHHGSDLGKKLLEAARAGQDDEVRILMANGADVNAKDYFSHTPLHLAARNGHLKIVEVLLKAGADVNAKDFAGKTPLHLAANDGHLEIVEVLLKHGADVNAQDIFGKTPADIAADAGHEDIAEVLQKLGSPTPTPTTPTPTPTTPTPTPTGSRSDLDITGLKLN
binding result [1]: binds

B26: Protein #51 (designed binder)
chain: MRGSHHHHHHGSDLGKKLLEAARAGQDDEVRILMANGADVNAKDYFSHTPLHLAARNGHLKIVEVLLKAGADVNAKDFAGKTPLHLAANDGHLEIVEVLLKHGADVNAQDIFGKTPADIAADAGHEDIAEVLQKAA
Kd [1]: 14 nM

B29: Protein #46 (designed binder)
chain: B26 chain with M34L, N36A
Kd [1]: 22 nM

B30: Protein #45 (designed binder)
chain: B26 chain with K61E
Kd [1]: 13 nM

B34: Protein #50 (designed binder)
chain: B26 chain with I32E, M34L, A35K, N36A, D90E, H102A
Kd [1]: 27 nM

B36: Protein #12 (designed binder)
chain: MRGSHHHHHHGSDLGKKLLEAARAGQDDEVRILMANGADVNAFDWMGWTPLHLAAHEGHLEIVEVLLKNGADVNATDVSGYTPLHLAAADGHLEIVEVLLKHGADVNTKDNTGWTPLHLSADLGHLEIVEVLLKNGADVNAQDKFGKTAFDISIDNGNEDLAEILQKAA
Kd [3]: 0.094 nM

Further lines, results first:

binding result [1]: binds
B1: Protein #40 (designed binder)
chain: B3 chain with N36S, G47S, N74D, G103D

binding result [1]: binds
B2: Protein #41 (designed binder)
chain: B3 chain with K17E, D57N, K111I, D118E

Kd [2]: 0.066 nM
B5: Protein #25 (designed binder)
chain: MRGSHHHHHHGSDLGKKLLEAARAGQDDEVRILMANGADVNAKDRYGDTPLHLAADIGHLEIVEVLLKAGADVNAEDYFGNTPLHLAASYGHLEIVEVLLKAGADVNAKDDYGNTPLHLAANTGHLEIVEVLLKAGADVNAQDKSGKTPADLAADAGHEDIAEVLQKAA

Kd [2]: 0.129 nM
B6: Protein #27 (designed binder)
chain: B5 chain with M34L, A35K, N36A, I57A, E61K, Y90A, Y112A, E127K

Kd [3]: 0.141 nM
B9: Protein #16 (designed binder)
chain: MRGSHHHHHHGSDLDKKLLEAARAGQDDEVRILMANGADVNAKDSTGYTPLHLAAPWGHLEIVEVLLKAGADVNAKDYQGWTPLHLAAAVGHLEIVEVLLKAGADVNAQDKSGKTPADLAADAGHEDIAEVLQKAA

binding result [3]: binds
B10: Protein #21 (designed binder)
chain: B9 chain with M34L, A35K, N36A, Y48W, L60P

binding result [3]: binds
B13: Protein #15 (designed binder)
chain: B12 chain with A55V, P60L, N69Y, H76K, Y78F, T89A, L90I, L93Q, H102N

Kd [1]: 15 nM
B17: Protein #55 (designed binder)
chain: B16 chain with S103G

Kd [1]: 11 nM
B18: Protein #54 (designed binder)
chain: B16 chain with H102A, S103G

binding result [1]: binds
B19: Protein #56 (designed binder)
chain: B16 chain with H102A

binding result [2]: binds
B22: Protein #32 (designed binder)
chain: MRGSHHHHHHGSDLGKKLLEAARAGQDDEVRILMANGADVNAIDTWGNTPLHLAADYGHLEIVEVLLKNGADVNALDWFGDTPLHLAASLGHLEIVEVLLKNGADVNAVDTYGNTPLHLAANTGRLEIVEVLLKYGADVNAQDKFGKTAFDISIDNGNEDLAEILQKAA

binding result [2]: binds
B24: Protein #36 (designed binder)
chain: MRGSHHHHHHGSDLGKKLLEAARAGQDDEVRILMANGADVNANDSSGLTPLHLAAFYGHLEIVEVLLKYGADVNADDDWGHTPLHLAAHYGHLEIVEVLLKHGADVNAIDTRGLTPLHLAAIAGHLEIVEVLLKYGADVNAQDKFGKTAFDISIDNGNEDLAEILQKAA

binding result [1]: binds
B25: Protein #53 (designed binder)
chain: MRGSHHHHHHGSDLGKKLLEAARAGQDDEVRFLMANGADVNAADERGTTPLHLAAVYGHLEIVEVLLKNGADVNAQNETGYTPLHLADSSGHLEIVEVLLKHSADVNAQDKFGKTAFDISIDNGNEDLAEILQKAA

Kd [1]: 15 nM
B27: Protein #49 (designed binder)
chain: B26 chain with I32E, M34L, A35K, N36A, H102A

Kd [1]: 20 nM
B28: Protein #48 (designed binder)
chain: B26 chain with M34L, A35K, N36A, H102A

Kd [1]: 27 nM
B31: Protein #47 (designed binder)
chain: B26 chain with G15D

binding result [1]: binds
B32: Protein #43 (designed binder)
chain: B3 chain with G47S, K111I

Kd [1]: 26 nM
B33: Protein #44 (designed binder)
chain: B26 chain with G15D, K61E

Kd [2]: 0.163 nM
B35: Protein #24 (designed binder)
chain: MRGSHHHHHHGSDLGKKLLEAARAGQDDEVRILMANGADVNAKDRFGDTPLHLAADIGHLEIVEVLLKAGADVNAKDWFGNTPLHLAASFGHLEIVEVLLKAGADVNAKDDYGNTPLHLAANTGHLEIVEVLLKAGADVNAQDKFGKTAFDISIDNGNEDLAEILQKAA

Kd [3]: 0.096 nM
B37: Protein #13 (designed binder)
chain: MRGSHHHHHHGSDLDKKLLEAARAGQDDEVRILLKAGADVNAKDYLGWTPLHLAAHEGHLEIVEVLLKAGADVNAKDVSGYTPLHLAAADGHLEIVEVLLKAGADVNAKDNTGWTPLHLSADLGHLEIVEVLLKAGADVNAQDKFGKTAFDISIDNGNEDLAEILQKAA
